The results in this text go back to the Human Domainome abundance scans (Beltran et al. 2025).

± gives the uncertainty stated by the source.

B1: TOX high mobility group box family member 3, residues 256 to 323; numbered along this chain, O15405 (parent)
chain: QKPVSAYALFFRDTQAAIKGQNPNATFGEVSKIVASMWDSLGEEQKQVYKRKTEAAKKEYLKALAAYR

In the series the parent is B1. The series can be described thus: abundance fitness (aPCA) (normalised: wild type 0, dead -1); higher = more abundant; growth selection in yeast, the domain comes from the species named. The note with it: Homo sapiens.
As to QKPVSAYALFFRDTQAAIKGQNPNATFGEVSKIVASMWDSLGEEWKQVYKRKTEAAKKEYLKALAAYR [Q45W], the abundance fitness is -0.642 ± 0.095. The value for QKPVSAYALFFRDTQAAIKGQNPNATFGEVSKIVASMWDSLGEERKQVYKRKTEAAKKEYLKALAAYR [Q45R] was -0.059 ± 0.045; that for QKPVSAYALFFRDTQAAIKGQNPNATFGEVSKIVASMWDSLGEEIKQVYKRKTEAAKKEYLKALAAYR [Q45I] was -0.479 ± 0.1. On to QKPVSAYALFFRDTQAAIKGQNPNATFGEVSKIVASMWDSLGEEPKQVYKRKTEAAKKEYLKALAAYR [Q45P], for which the abundance fitness is -0.546 ± 0.066.

In the case of QKPVSAYALFFRDTQAAIKGQNPNATFGEVSKIVASMWDSLGEEKKQVYKRKTEAAKKEYLKALAAYR [Q45K], the abundance fitness came to 0.037 ± 0.088.

In the case of QKPVSAYALFFRDTQAAIKGQNPNATFGEVSKIVASMWDSLGEENKQVYKRKTEAAKKEYLKALAAYR [Q45N], the abundance fitness is -0.232 ± 0.16. As to QKPVSAYALFFRDTQAAIKGQNPNATFGEVSKIVASMWDSLGEEYKQVYKRKTEAAKKEYLKALAAYR [Q45Y], the abundance fitness was -0.373 ± 0.23. Then QKPVSAYALFFRDTQAAIKGQNPNATFGEVSKIVASMWDSLGEETKQVYKRKTEAAKKEYLKALAAYR [Q45T], with -0.114 ± 0.098; and QKPVSAYALFFRDTQAAIKGQNPNATFGEVSKIVASMWDSLGEEHKQVYKRKTEAAKKEYLKALAAYR [Q45H], with 0.098 ± 0.14; and QKPVSAYALFFRDTQAAIKGQNPNATFGEVSKIVASMWDSLGEESKQVYKRKTEAAKKEYLKALAAYR [Q45S], with -0.129 ± 0.061. QKPVSAYALFFRDTQAAIKGQNPNATFGEVSKIVASMWDSLGEELKQVYKRKTEAAKKEYLKALAAYR [Q45L]: the abundance fitness is -0.433 ± 0.06. Then QKPVSAYALFFRDTQAAIKGQNPNATFGEVSKIVASMWDSLGEEMKQVYKRKTEAAKKEYLKALAAYR [Q45M], with -0.431 ± 0.098; and QKPVSAYALFFRDTQAAIKGQNPNATFGEVSKIVASMWDSLGEEVKQVYKRKTEAAKKEYLKALAAYR [Q45V], with -0.278 ± 0.079; and QKPVSAYALFFRDTQAAIKGQNPNATFGEVSKIVASMWDSLGEEQDQVYKRKTEAAKKEYLKALAAYR [K46D], with -0.678 ± 0.13. For the variant QKPVSAYALFFRDTQAAIKGQNPNATFGEVSKIVASMWDSLGEEQPQVYKRKTEAAKKEYLKALAAYR [K46P], the abundance fitness is -0.978 ± 0.19. In the case of QKPVSAYALFFRDTQAAIKGQNPNATFGEVSKIVASMWDSLGEEQMQVYKRKTEAAKKEYLKALAAYR [K46M], the abundance fitness was -0.356 ± 0.086. QKPVSAYALFFRDTQAAIKGQNPNATFGEVSKIVASMWDSLGEEQVQVYKRKTEAAKKEYLKALAAYR [K46V]: the abundance fitness was -0.437 ± 0.054.

Consider QKPVSAYALFFRDTQAAIKGQNPNATFGEVSKIVASMWDSLGEEQIQVYKRKTEAAKKEYLKALAAYR [K46I], for which the abundance fitness is -0.398 ± 0.1. As for QKPVSAYALFFRDTQAAIKGQNPNATFGEVSKIVASMWDSLGEEQLQVYKRKTEAAKKEYLKALAAYR [K46L], the abundance fitness was -0.537 ± 0.058. Regarding QKPVSAYALFFRDTQAAIKGQNPNATFGEVSKIVASMWDSLGEEQSQVYKRKTEAAKKEYLKALAAYR [K46S], the abundance fitness was -0.811 ± 0.12. The value for QKPVSAYALFFRDTQAAIKGQNPNATFGEVSKIVASMWDSLGEEQWQVYKRKTEAAKKEYLKALAAYR [K46W] was -0.988 ± 0.24; that for QKPVSAYALFFRDTQAAIKGQNPNATFGEVSKIVASMWDSLGEEQYQVYKRKTEAAKKEYLKALAAYR [K46Y] was -0.529 ± 0.17. The value for QKPVSAYALFFRDTQAAIKGQNPNATFGEVSKIVASMWDSLGEEQTQVYKRKTEAAKKEYLKALAAYR [K46T] was -0.395 ± 0.11; that for QKPVSAYALFFRDTQAAIKGQNPNATFGEVSKIVASMWDSLGEEQQQVYKRKTEAAKKEYLKALAAYR [K46Q] was -0.08 ± 0.083; that for QKPVSAYALFFRDTQAAIKGQNPNATFGEVSKIVASMWDSLGEEQFQVYKRKTEAAKKEYLKALAAYR [K46F] was -0.913 ± 0.19. Then QKPVSAYALFFRDTQAAIKGQNPNATFGEVSKIVASMWDSLGEEQHQVYKRKTEAAKKEYLKALAAYR [K46H], with -0.836 ± 0.24; and QKPVSAYALFFRDTQAAIKGQNPNATFGEVSKIVASMWDSLGEEQEQVYKRKTEAAKKEYLKALAAYR [K46E], with -1.05 ± 0.19.

As for QKPVSAYALFFRDTQAAIKGQNPNATFGEVSKIVASMWDSLGEEQGQVYKRKTEAAKKEYLKALAAYR [K46G], the abundance fitness was -0.8 ± 0.075. Then QKPVSAYALFFRDTQAAIKGQNPNATFGEVSKIVASMWDSLGEEQCQVYKRKTEAAKKEYLKALAAYR [K46C], with -0.714 ± 0.18; and QKPVSAYALFFRDTQAAIKGQNPNATFGEVSKIVASMWDSLGEEQKEVYKRKTEAAKKEYLKALAAYR [Q47E], with -0.052 ± 0.1.

As for QKPVSAYALFFRDTQAAIKGQNPNATFGEVSKIVASMWDSLGEEQKAVYKRKTEAAKKEYLKALAAYR [Q47A], the abundance fitness is -0.101 ± 0.075. The value for QKPVSAYALFFRDTQAAIKGQNPNATFGEVSKIVASMWDSLGEEQKIVYKRKTEAAKKEYLKALAAYR [Q47I] was -0.498 ± 0.49; that for QKPVSAYALFFRDTQAAIKGQNPNATFGEVSKIVASMWDSLGEEQKDVYKRKTEAAKKEYLKALAAYR [Q47D] was 0.033 ± 0.12; that for QKPVSAYALFFRDTQAAIKGQNPNATFGEVSKIVASMWDSLGEEQKHVYKRKTEAAKKEYLKALAAYR [Q47H] was -0.232 ± 0.1.

Consider QKPVSAYALFFRDTQAAIKGQNPNATFGEVSKIVASMWDSLGEEQKLVYKRKTEAAKKEYLKALAAYR [Q47L], for which the abundance fitness is -0.211 ± 0.061.

Turning to QKPVSAYALFFRDTQAAIKGQNPNATFGEVSKIVASMWDSLGEEQKKVYKRKTEAAKKEYLKALAAYR [Q47K], the abundance fitness is -0.048 ± 0.087.

With QKPVSAYALFFRDTQAAIKGQNPNATFGEVSKIVASMWDSLGEEQKCVYKRKTEAAKKEYLKALAAYR [Q47C], the abundance fitness is -0.195 ± 0.061. On to QKPVSAYALFFRDTQAAIKGQNPNATFGEVSKIVASMWDSLGEEQKMVYKRKTEAAKKEYLKALAAYR [Q47M], for which the abundance fitness was -0.11 ± 0.089. The value for QKPVSAYALFFRDTQAAIKGQNPNATFGEVSKIVASMWDSLGEEQKFVYKRKTEAAKKEYLKALAAYR [Q47F] was -0.445 ± 0.14. Consider QKPVSAYALFFRDTQAAIKGQNPNATFGEVSKIVASMWDSLGEEQKGVYKRKTEAAKKEYLKALAAYR [Q47G], for which the abundance fitness is -0.103 ± 0.05.
